In patent US20200262920A1 (AMPHIVENA THERAPEUTICS, published 2020):
“And” between values parts separate entries of the source, which are not always exact repeats. Identical values can stand only once.

B1: CD33/CD3 2×2 T-cell engager 19 (bispecific antibody)
chain: DIQMTQSPSSLSASVGDRVTITCRSSTGAVTTSNYANWVQQKPGKAPKALIGGTNKRAPGVPSRFSGSLIGDKATLTISSLQPEDFATYYCALWYSNLWVFGQGTKVEIKGGSGGSQVQLVQSGAEVKKPGASVKVSCKASGYTFTSYYMHWVRQAPGQGLEWMGIINPSGGSTSYAQKFQGRVTMTRDTSTSTVYMELSSLRSEDTAVYYCARDVVPAAIDYYGMDVWGQGTTVTVSSGGSGQSVLTQPPSASGTPGQRVTISCSGSSSNIGSNTVNWYQQLPGTAPKLLIYSDNQRPSGVPDRFSGSKSGSSASLAISGLQSDDEADYYCATWDDSLNGAVFGGGTKLTVLGGSGGSEVQLVESGGGLVQPGGSLRLSCAASGFTFSTYAMNWVRQAPGKGLEWVGRIRSKYNNYATYYADSVKDRFTISRDDSKNSLYLQMNSLKTEDTAVYYCARHGNFGNSYVSYFAYWGQGTLVTVSSAAAGSHHHHHH
notes: Non-covalent homodimer
B2: CD33/CD3 2×2 T-cell engager 21 (bispecific antibody)
chain: DIQMTQSPSSLSASVGDRVTITCRSSTGAVTTSNYANWVQQKPGKAPKALIGGTNKRAPGVPSRFSGSLIGDKATLTISSLQPEDFATYYCALWYSNLWVFGQGTKVEIKGGSGGSQVQLVQSGAEVKKPGSSVKVSCKASGGTFSSYAISWVRQAPGQGLEWMGGIYPIFGSANYAQKFQGRVTITADESTSTAYMELSSLRSEDTAVYYCAREYYYDSSEWAFDIWGQGTLVTVSSGGSGQSVLTQPPSASGTPGQRVTISCSGSSSNIGSNIVNWYQQLPGTAPKLLIYSNNQRPSGVPDRFSGSKSGTSASLAISGLQSEDEADYYCAAWDDSLKGYVFGGGTKLTVLGGSGGSEVQLVESGGGLVQPGGSLRLSCAASGFTFSTYAMNWVRQAPGKGLEWVGRIRSKYNNYATYYADSVKDRFTISRDDSKNSLYLQMNSLKTEDTAVYYCARHGNFGNSYVSYFAYWGQGTLVTVSSAAAGSHHHHHH
notes: Non-covalent homodimer
B3: CD33/CD3 2×2 T-cell engager 22 (bispecific antibody)
chain: DIQMTQSPSSLSASVGDRVTITCRSSTGAVTTSNYANWVQQKPGKAPKALIGGTNKRAPGVPSRFSGSLIGDKATLTISSLQPEDFATYYCALWYSNLWVFGQGTKVEIKGGSGGSQVQLVQSGAEVKKPGSSVKVSCKASGGTFSSYGISWVRQAPGQGLEWMGGIIPIFGSAHYAQKFQGRVTITADESTSTAYMELSSLRSEDTAVYYCAREYYYDSSEWAFDIWGQGTLVTVSSGGSGQSVLTQPPSASGTPGQRVTISCSGSSSNIGSNTVKWYQQLPGTAPKLLIYSNNQRSSGVPDRFSGSKSGSSASLAISGLQSEDEADYYCAAWDDSLNGYVFGGGTKLTVLGGSGGSEVQLVESGGGLVQPGGSLRLSCAASGFTFSTYAMNWVRQAPGKGLEWVGRIRSKYNNYATYYADSVKDRFTISRDDSKNSLYLQMNSLKTEDTAVYYCARHGNFGNSYVSYFAYWGQGTLVTVSSAAAGSHHHHHH
notes: Non-covalent homodimer
B4: CD33/CD3 2×2 T-cell engager 17 (bispecific antibody)
chain: DIQMTQSPSSLSASVGDRVTITCRSSTGAVTTSNYANWVQQKPGKAPKALIGGTNKRAPGVPSRFSGSLIGDKATLTISSLQPEDFATYYCALWYSNLWVFGQGTKVEIKGGSGGSQVQLVQSGAEVKKPGESLKISCKGSGYSFTSYWIGWVRQMPGKGLEWMGIIYPGDSDTRYSPSFQGQVTISADKSISTAYLQWSSLKASDTAMYYCARHKRGSDAFDIWGQGTTVTVSSGGSGQSVLTQPPSVSGAPGQRVTISCTGSSSNIGAGYDVHWYQQLPGTAPKLLIYGNSNRPSGVPDRFSGSKSGTSASLAITGLQAEDEADYYCQSYDSSLSDVVFGGGTKLTVLGGSGGSEVQLVESGGGLVQPGGSLRLSCAASGFTFSTYAMNWVRQAPGKGLEWVGRIRSKYNNYATYYADSVKDRFTISRDDSKNSLYLQMNSLKTEDTAVYYCARHGNFGNSYVSYFAYWGQGTLVTVSSAAAGSHHHHHH
notes: Non-covalent homodimer
B5: CD33/CD3 2×2 T-cell engager 12 (bispecific antibody)
chain: DIQMTQSPSSLSASVGDRVTITCRSSTGAVTTSNYANWVQQKPGKAPKALIGGTNKRAPGVPSRFSGSLIGDKATLTISSLQPEDFATYYCALWYSNLWVFGQGTKVEIKGGSGGSQVQLVQSGAEVKKPGASVKVSCKASGYTFTSYDINWVRQAPGQGLEWMGWMNPNSGNTGFAQKFQGRVTMTRDTSTSTVYMELSSLRSEDTAVYYCARDRAVTDYYYGMDVWGQGTLVTVSSGGSGQSVLTQPPSASGTPGQRVTISCSGSRSNIGSNTVNWYQQLPGTAPKLLIYGNNQRPSGVPDRFSGSKSGTSASLAISGLQSEDEADYYCATWDDSLIGWVFGGGTKLTVLGGSGGSEVQLVESGGGLVQPGGSLRLSCAASGFTFSTYAMNWVRQAPGKGLEWVGRIRSKYNNYATYYADSVKDRFTISRDDSKNSLYLQMNSLKTEDTAVYYCARHGNFGNSYVSYFAYWGQGTLVTVSSAAAGSHHHHHH
notes: Non-covalent homodimer; also called tandom diabody 12

Tests used:
human CD33 [1] = biological target: T1, human CD33 (human, UniProt P20138 18-364); assay: cell-based or functional assay
human CD33 [2] = biological target: T1, human CD33; assay: cell-based or functional assay; remark: listed apart in the source
human CD3 [3] = biological target: T2, human CD3 (human, UniProt P07766 23-207; P09693 23-182; P04234 22-171; P20963 22-164); assay: cell-based or functional assay
human CD33 [4] = biological target: T1, human CD33; assay: flow cytometry, HL-60 cells
human CD3 [5] = biological target: T2, human CD3; assay: flow cytometry, human T-cells
human CD33 [6] = biological target: T1, human CD33; assay: flow cytometry titration, KG-1 cells
Protocol: (§1) Cells were incubated with 100 μL of serial dilutions of CD33/CD3 2×2 T-cell engagers. After washing three times with FACS buffer the cells were incubated with 0.1 mL of 10 μg/mL mouse monoclonal anti-His antibody in the same buffer for 45 min on ice. After a second washing cycle, the cells were incubated with 0.1 mL of 15 μg/mL FITC-conjugated goat anti-mouse IgG antibodies under the same conditions as before. As a control, cells were incubated with the anti-His IgG followed by the FITC-conjugated goat anti-mouse IgG antibodies without anti-CD33 2×2 T-cell engagers. The cells were then washed again and resuspended in 0.2 mL of FACS buffer containing 2 μg/mL propidium iodide (PI) in order to exclude dead cells. The fluorescence of 1×10⁴ living cells was measured using a Beckman-Coulter FC500 MPL flow cytometer using the MXP software (Beckman-Coulter, Krefeld, Germany) or a Millipore Guava EasyCyte flow cytometer using the Incyte software (Merck Millipore, Schwalbach, Germany). Mean fluorescence intensities of the cell samples were calculated using CXP software (Beckman-Coulter, Krefeld, Germany) or Incyte software (Merck Millipore, Schwalbach, Germany). After subtracting the fluorescence intensity values of the cells stained with the secondary and tertiary reagents alone the values were used for calculation of the KD values with the equation for one-site binding (hyperbola) of the GraphPad Prism (version 6.00 for Windows, GraphPad Software, La Jolla Calif. USA). […]

human CD33 [7] = biological target: T1, human CD33; assay: flow cytometry titration, HL-60 cells
Protocol: as §1

human CD33 [8] = biological target: T1, human CD33; assay: flow cytometry titration, U-937 cells
Protocol: as §1

human CD3 [9] = biological target: T2, human CD3; assay: flow cytometry titration, T cells (human CD3+)
cynomolgus CD33 = biological target: T3, cynomolgus CD33 (cynomolgus, UniProt A0A7N9ICR5 17-359); assay: ratio of KD by flow cytometry on CHO cells expressing cynomolgus CD33 vs human CD33
T3 construct: whole, on cells; also called cynoCD33; cyno CD33
Protocol: Cells were incubated with 100 μL of serial dilutions of CD33/CD3 2×2 T-cell engagers. After washing three times with FACS buffer the cells were incubated with 0.1 mL of 10 μg/mL mouse monoclonal anti-His antibody in the same buffer for 45 min on ice. After a second washing cycle, the cells were incubated with 0.1 mL of 15 μg/mL FITC-conjugated goat anti-mouse IgG antibodies under the same conditions as before. As a control, cells were incubated with the anti-His IgG followed by the FITC-conjugated goat anti-mouse IgG antibodies without anti-CD33 2×2 T-cell engagers. The cells were then washed again and resuspended in 0.2 mL of FACS buffer containing 2 μg/mL propidium iodide (PI) in order to exclude dead cells. The fluorescence of 1×10⁴ living cells was measured using a Beckman-Coulter FC500 MPL flow cytometer using the MXP software (Beckman-Coulter, Krefeld, Germany) or a Millipore Guava EasyCyte flow cytometer using the Incyte software (Merck Millipore, Schwalbach, Germany). Mean fluorescence intensities of the cell samples were calculated using CXP software (Beckman-Coulter, Krefeld, Germany) or Incyte software (Merck Millipore, Schwalbach, Germany). After subtracting the fluorescence intensity values of the cells stained with the secondary and tertiary reagents alone the values were used for calculation of the KD values with the equation for one-site binding (hyperbola) of the GraphPad Prism (version 6.00 for Windows, GraphPad Software, La Jolla Calif. USA).
CD3 binding affinity and crossreactivity were evaluated in titration and flow cytometric experiments on CD3⁺ Jurkat cells (provided by Dr. Moldenhauer, DKFZ Heidelberg; human acute T-cell leukemia) and the cynomolgus CD3⁺ HSC-F cell line (JCRB, cat.:JCRB 1164). […] The KD ratio of crossreactivity was calculated using the KD values determined on the CHO cell lines expressing either recombinant human or recombinant cynomolgus antigens.

human CD33 [10] = biological target: T1, human CD33; assay: cell-based or functional assay; remark: listed apart in the source
human CD33 [11] = biological target: T1, human CD33; assay: cell-based or functional assay; remark: listed apart in the source

T2 sequence (P07766 23-207, chain 1 of 4): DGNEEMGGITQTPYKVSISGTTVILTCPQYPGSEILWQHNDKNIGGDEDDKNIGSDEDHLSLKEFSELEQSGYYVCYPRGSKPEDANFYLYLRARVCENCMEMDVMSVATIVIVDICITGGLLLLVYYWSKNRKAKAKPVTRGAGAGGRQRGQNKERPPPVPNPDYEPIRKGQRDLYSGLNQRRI
T2 sequence (P09693 23-182, chain 2 of 4): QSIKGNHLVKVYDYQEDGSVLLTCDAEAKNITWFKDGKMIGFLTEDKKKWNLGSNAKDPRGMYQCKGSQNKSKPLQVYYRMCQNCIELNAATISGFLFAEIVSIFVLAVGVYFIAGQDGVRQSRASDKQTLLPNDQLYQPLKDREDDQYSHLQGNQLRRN
T2 sequence (P04234 22-171, chain 3 of 4): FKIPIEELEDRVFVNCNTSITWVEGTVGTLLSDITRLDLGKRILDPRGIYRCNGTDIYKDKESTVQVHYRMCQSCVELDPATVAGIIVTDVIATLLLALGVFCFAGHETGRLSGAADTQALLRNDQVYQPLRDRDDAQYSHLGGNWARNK
T2 sequence (P20963 22-164, chain 4 of 4): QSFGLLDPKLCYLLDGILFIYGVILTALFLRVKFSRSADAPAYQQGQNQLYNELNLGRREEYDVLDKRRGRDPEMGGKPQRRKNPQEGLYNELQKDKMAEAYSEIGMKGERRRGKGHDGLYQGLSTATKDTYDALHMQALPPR
T1 sequence (P20138 18-364): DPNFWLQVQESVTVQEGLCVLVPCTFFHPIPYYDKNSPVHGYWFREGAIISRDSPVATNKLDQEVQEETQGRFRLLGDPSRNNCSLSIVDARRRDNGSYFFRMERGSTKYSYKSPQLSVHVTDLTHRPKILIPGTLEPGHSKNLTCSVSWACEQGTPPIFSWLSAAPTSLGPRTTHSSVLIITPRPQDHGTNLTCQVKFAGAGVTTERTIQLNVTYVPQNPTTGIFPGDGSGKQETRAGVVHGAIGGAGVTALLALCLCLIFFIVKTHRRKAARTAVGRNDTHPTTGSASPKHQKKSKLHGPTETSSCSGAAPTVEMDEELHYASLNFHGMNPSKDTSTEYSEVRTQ

Binder | IC50, lysis of KG-1 cells with human T cells (human CD33 [1]) | EC50 on HL-60 (cytotoxicity) (human CD33 [2]) | CD25 Induction EC50 (human CD3 [3]) | CD69 Induction EC50 (human CD3 [3]) | T cell Proliferation in PBMC EC50 (human CD3 [3]) | Kd (human CD33 [4]) | Kd (human CD3 [5]) | Kd (human CD33 [6]) | Kd (human CD33 [7]) | Kd (human CD33 [8]) | Kd (human CD3 [9]) | KD ratio cynoCD33/huCD33 (cynomolgus CD33) | also measured
B1 | ~5 pM | 5.7 pM | 9 pM | 5 pM | 6 pM | 2800 pM | 6300 pM | 3600 pM | 2800 pM | 5400 pM | 6300 pM | 37.3 | 
B2 |  | 7.6 pM |  | 225 pM | 500 pM | 9700 pM | 2100 pM | 25100 pM | 9700 pM | 80200 pM | 2100 pM | 0.9 | 
B3 |  | 3.2 pM | 10 pM | 4 pM | 7 pM | 700 pM | 4100 pM | 2000 pM | 700 pM | 8600 pM | 4100 pM | 0.6 | 
B4 |  | 18.4 pM | 30 pM | 114 pM | 30 pM | 5000 pM | 3300 pM | 52500 pM | 5000 pM | 24400 pM | 3300 pM | 1.9 | 
B5 | ~0.01 pM | 1.3 pM | 6 pM | 3 pM | 2 pM | 300 pM | 1500 pM | 900 pM | 300 pM | 500 pM | 1500 pM |  | EC50, cytotoxicity on HL-60 (human CD33 [10]): 1.3 pM and 137 pg/mL; EC50, cytotoxicity on KG-1 (human CD33 [10]): 1.2 pM and 126 pg/mL; EC50, cytotoxicity on U-937 (human CD33 [10]): 0.8 pM and 84 pg/mL; EC50, cytotoxicity, mean of HL-60, U-937, KG-1 (human CD33 [10]): 1.1 pM and 116 pg/mL; EC50 (mean), redirected lysis of BV-173 cells (human CD33 [11]): 1.4 pM; EC50 (mean), redirected lysis of CHO-CD33 cells (human CD33 [11]): 11.8 pM; EC50 (mean), redirected lysis of HL-60 cells (human CD33 [11]): 1.4 pM; EC50 (mean), redirected lysis of K562 cells (human CD33 [11]): 4.5 pM; EC50 (mean), redirected lysis of KASUMI-1 cells (human CD33 [11]): 1.3 pM; EC50 (mean), redirected lysis of KG-1 cells (human CD33 [11]): 1 pM; EC50 (mean), redirected lysis of RPMI-8226 cells (human CD33 [11]): 14 pM; EC50 (mean), redirected lysis of THP-1 cells (human CD33 [11]): 1.9 pM; EC50 (mean), redirected lysis of U-937 cells (human CD33 [11]): 0.9 pM
